Laboratory results published in paper doi:10.1101/2025.09.02.671137 (bioRxiv, 2025).
Residue numbers refer to the chain shown, from its start.

T1: Cdc13-K504E (Saccharomyces cerevisiae, UniProt P32797 1-924, K504E)
T1 sequence: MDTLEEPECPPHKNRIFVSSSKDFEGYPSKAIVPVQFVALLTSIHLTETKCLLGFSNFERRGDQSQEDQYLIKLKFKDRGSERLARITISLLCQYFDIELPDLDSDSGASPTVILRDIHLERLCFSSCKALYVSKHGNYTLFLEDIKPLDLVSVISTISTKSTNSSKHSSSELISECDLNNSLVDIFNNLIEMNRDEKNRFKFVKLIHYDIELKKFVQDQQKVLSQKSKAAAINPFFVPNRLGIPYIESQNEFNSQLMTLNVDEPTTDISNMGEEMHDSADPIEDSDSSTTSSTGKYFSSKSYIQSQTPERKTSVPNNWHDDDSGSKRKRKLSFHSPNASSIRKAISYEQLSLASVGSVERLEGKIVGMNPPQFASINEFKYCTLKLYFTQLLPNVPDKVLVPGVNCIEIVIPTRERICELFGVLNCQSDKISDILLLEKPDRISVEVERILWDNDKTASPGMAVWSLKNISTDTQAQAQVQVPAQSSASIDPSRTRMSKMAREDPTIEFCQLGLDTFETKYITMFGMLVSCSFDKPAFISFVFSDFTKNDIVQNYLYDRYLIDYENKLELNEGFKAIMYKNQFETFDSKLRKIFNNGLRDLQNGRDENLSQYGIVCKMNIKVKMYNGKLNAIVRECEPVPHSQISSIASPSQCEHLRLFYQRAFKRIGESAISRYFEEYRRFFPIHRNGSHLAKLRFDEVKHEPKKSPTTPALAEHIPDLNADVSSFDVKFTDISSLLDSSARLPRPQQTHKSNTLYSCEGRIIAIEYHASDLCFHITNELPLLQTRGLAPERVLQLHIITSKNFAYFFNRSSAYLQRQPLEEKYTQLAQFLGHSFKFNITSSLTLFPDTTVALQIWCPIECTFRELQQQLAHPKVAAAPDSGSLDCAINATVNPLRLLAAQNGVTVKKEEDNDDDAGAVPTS

T2: Cdc13 (Saccharomyces cerevisiae, UniProt P32797 1-924)
T2 sequence: T1 sequence with E504K

T3: Cdc13-OB234 (Saccharomyces cerevisiae, UniProt P32797 341-924)
T3 sequence: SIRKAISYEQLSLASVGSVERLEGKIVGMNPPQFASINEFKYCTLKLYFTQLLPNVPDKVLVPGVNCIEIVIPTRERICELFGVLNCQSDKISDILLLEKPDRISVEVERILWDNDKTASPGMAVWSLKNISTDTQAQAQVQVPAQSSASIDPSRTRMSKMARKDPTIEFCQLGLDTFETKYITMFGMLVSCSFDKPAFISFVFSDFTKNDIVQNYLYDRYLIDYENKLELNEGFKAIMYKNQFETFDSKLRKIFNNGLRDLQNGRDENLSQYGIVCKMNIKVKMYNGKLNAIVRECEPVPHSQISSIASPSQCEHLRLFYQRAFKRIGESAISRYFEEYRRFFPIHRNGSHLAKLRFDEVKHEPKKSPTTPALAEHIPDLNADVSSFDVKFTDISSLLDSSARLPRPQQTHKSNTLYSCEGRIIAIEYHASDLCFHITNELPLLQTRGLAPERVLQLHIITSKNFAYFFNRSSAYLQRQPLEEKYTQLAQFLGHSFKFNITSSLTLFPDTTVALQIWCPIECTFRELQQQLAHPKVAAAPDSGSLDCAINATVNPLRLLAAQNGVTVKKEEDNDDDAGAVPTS

B1: Tel14 (dsDNA)
DNA 1: ATAATGATAAGACGTAGAGTGGGTGTGTGTGTGGGGTGGT
DNA 2: ACACCCACTCTACGTCTTATCATTAT
B2: Cdc13 (recombinant full-length, Cdc13-Flag) (natural protein, S. cerevisiae, UniProt P32797 1-924, looked up)
chain: T1 sequence with E504K
B3: Tel22 (dsDNA)
DNA 1: ATAATGATAAGACGTAGAGTGGGTGTGTGTGTGGGGTGGTGTGTGTGG
DNA 2: ACACCCACTCTACGTCTTATCATTAT
B4: Tel7 (dsDNA)
DNA 1: ATAATGATAAGACGTAGAGTGGGTGTGTGTGTG
DNA 2: ACACCCACTCTACGTCTTATCATTAT
B5: L-Tel22 (dsDNA)
DNA 1: TTCAGACAACAGTAGACTACAAGGATGACGACAAGATTAAGCTTTCTTATGTGGGTGTGTGTGTGGGGTGGTGTGTGTGG
DNA 2: ACACCCACATAAGAAAGCTTAATCTTGTCGTCATCCTTGTAGTCTACTGTTGTCTGAA
B6: ds26 (dsDNA)
DNA 1: ATAATGATAAGACGTAGAGTGGGTGT
DNA 2: ACACCCACTCTACGTCTTATCATTAT

Experiments:
[1] = target: T1, Cdc13-K504E; experiment: EMSA
[2] = target: T2, Cdc13; experiment: EMSA
[3] = target: T2, Cdc13; experiment: EMSA; remark: listed apart in the source
[4] = target: the molecule itself; experiment: SEC
[5] = target: Ku (Ku70-Ku80);Cdc13 (Saccharomyces cerevisiae;Saccharomyces …, UniProt P32807;Q04437;P32797 1-602;1-629;1-924, |); experiment: EMSA
Sequence of Ku (Ku70-Ku80);Cdc13 (P32807 whole entry, chain 1 of 2): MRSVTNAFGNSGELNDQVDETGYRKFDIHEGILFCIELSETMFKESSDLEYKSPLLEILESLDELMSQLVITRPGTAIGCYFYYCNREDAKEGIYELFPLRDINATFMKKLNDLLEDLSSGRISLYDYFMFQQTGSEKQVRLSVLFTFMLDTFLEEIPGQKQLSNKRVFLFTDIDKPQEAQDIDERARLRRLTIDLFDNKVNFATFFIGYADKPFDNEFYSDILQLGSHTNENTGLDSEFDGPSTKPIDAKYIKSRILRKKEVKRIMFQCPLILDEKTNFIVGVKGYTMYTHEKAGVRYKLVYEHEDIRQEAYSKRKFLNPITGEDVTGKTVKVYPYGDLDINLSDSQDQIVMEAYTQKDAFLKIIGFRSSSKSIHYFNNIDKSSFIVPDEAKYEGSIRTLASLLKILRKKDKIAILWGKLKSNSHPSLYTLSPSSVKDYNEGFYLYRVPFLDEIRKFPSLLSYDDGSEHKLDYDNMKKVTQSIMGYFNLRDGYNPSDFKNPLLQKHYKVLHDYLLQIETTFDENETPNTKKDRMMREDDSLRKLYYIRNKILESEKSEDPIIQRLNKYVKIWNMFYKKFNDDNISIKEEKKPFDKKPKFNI
Sequence of Ku (Ku70-Ku80);Cdc13 (Q04437 whole entry, chain 2 of 2): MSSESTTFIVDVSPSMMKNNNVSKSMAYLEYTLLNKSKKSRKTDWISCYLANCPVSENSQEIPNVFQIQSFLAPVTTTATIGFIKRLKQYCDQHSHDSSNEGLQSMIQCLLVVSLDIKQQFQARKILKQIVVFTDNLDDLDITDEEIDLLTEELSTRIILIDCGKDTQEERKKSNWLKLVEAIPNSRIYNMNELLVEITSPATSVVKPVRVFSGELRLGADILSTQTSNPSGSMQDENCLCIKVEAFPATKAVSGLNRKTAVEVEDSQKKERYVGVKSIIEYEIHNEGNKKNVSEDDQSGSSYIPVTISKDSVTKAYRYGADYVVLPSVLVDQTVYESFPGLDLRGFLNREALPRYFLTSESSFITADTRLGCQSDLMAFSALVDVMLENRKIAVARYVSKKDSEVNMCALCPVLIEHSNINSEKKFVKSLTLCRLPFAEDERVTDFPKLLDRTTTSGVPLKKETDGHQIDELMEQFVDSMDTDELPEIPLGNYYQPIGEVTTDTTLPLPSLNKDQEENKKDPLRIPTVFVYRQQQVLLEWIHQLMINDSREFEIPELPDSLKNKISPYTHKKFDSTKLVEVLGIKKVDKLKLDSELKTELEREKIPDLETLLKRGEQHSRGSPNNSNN

[6] = target: T3, Cdc13-OB234; experiment: DNase I footprinting
[7] = target: T2, Cdc13; experiment: DNase I footprinting
[8] = target: RPA (UniProt P22336;P26754;P26755 1-621;1-273;1-122); experiment: EMSA
Sequence of RPA (P22336 whole entry, chain 1 of 3): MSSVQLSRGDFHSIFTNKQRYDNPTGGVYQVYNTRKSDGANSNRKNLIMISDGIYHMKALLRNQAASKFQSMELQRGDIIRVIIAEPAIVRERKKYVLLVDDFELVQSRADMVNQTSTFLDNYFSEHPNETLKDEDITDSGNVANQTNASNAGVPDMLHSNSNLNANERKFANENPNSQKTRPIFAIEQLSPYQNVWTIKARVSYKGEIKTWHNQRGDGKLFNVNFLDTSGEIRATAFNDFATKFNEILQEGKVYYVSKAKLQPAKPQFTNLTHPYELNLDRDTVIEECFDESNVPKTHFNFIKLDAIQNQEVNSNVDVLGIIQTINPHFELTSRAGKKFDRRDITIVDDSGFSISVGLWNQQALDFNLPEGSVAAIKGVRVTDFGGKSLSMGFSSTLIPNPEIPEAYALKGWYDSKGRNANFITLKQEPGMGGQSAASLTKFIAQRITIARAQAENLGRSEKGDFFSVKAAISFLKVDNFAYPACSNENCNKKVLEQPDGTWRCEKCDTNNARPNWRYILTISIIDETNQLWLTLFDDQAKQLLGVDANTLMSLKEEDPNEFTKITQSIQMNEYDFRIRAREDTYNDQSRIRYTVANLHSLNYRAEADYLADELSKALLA
Sequence of RPA (P26754 whole entry, chain 2 of 3): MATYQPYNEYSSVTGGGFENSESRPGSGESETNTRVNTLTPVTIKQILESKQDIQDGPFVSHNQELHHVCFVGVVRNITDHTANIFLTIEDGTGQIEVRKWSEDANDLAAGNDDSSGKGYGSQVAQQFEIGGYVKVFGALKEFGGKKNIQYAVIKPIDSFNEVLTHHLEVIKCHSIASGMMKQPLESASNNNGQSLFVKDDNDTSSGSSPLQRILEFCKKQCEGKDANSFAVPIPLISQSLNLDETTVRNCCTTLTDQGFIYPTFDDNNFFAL
Sequence of RPA (P26755 whole entry, chain 3 of 3): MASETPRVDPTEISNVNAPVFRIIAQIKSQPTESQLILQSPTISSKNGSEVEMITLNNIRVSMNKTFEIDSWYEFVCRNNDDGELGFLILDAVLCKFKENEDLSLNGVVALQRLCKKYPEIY

Row | Binder | binding result [1] | Kd [2] [nM] | further results
1 | TGTGGGTGTGGTGTGGGTGTGG (ssDNA) [ssTel22] | binds | – | –
2 | B1 | binds | ~5 | –
3 | GTGTGGT (ssDNA) [ssTel7] | – | – | binding result [3]: no binding
4 | B2 | – | – | stoichiometry N [4]: 2
5 | B3 | binds | < 2.5 | binding result [5]: binds
6 | B4 | – | ~20 | –
7 | B5 | – | – | binding result [6]: binds; binding result [7]: binds
8 | B6 | – | ~300 | binding result [8]: no binding
